This is an account of results in patent EP4566632A1 (Nona Biosciences (Suzhou) Co., Ltd., dated 2024).

For test [1], the target named is T1, cynomolgus monkey MSLN protein (Harbour BioMed, Batch #: 2019072202) (cynomolgus monkey).
T1 construct: also called recombinant cynomolgus monkey MSLN ECD His-tag protein
T1 chain: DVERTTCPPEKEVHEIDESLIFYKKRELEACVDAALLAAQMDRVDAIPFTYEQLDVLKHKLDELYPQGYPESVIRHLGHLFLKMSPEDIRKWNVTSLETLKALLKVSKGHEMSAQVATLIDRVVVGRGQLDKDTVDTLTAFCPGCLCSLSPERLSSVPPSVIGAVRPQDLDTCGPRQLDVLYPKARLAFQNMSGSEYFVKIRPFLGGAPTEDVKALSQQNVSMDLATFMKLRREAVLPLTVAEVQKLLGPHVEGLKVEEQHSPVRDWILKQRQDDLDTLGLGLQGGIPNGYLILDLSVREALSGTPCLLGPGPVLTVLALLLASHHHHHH
Briefly: ELISA, cynomolgus monkey MSLN protein coated on plate. On the technique in general: In an ELISA, binding on a coated surface is turned into a signal by an enzyme label.

Test [2] deals with T2, Human MSLN (Acro Biosystems, Cat #: MSN-H5223) (human, UniProt Q13421 296-580, limits assumed).
T2 construct: extracellular domain; Bought protein; also called human MSLN protein; recombinant human MSLN ECD His-tag protein; not shown: His tag
Briefly: ELISA, human MSLN protein coated on plate.

T2 sequence (Q13421 other isoform, or with tags, fused parts or gaps limits assumed): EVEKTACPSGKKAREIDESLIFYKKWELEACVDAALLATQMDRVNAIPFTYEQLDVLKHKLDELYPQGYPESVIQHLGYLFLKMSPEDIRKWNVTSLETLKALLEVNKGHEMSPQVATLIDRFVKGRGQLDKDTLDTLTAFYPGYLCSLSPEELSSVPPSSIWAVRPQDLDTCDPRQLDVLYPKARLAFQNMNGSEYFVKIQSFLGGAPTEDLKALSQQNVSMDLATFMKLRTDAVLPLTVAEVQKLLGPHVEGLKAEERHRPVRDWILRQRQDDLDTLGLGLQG

B1: PR300186 (antibody, human IgG1, kappa, V domains shown)
VH: QVQLQESGPGLVKPSETLSLTCTVSGGSINNYYWSWVRQPPGKGLEWIGYIFYSGSTNSNPSLKSRVIISVDTSKNQFSLKLSSVTAADTAVYYCAREVGRIAVAGWFFDLWGRGTLVTVSS
VL: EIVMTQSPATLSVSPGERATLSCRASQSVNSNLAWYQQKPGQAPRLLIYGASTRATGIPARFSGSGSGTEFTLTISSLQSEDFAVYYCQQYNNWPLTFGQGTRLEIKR
notes: Initial antibody from Harbour H2L2 transgenic mice; also called anti-MSLN antibody PR300186
One may read the EC50 as the concentration needed to bring the measured effect to its halfway point. In test [1], B1 came in with an EC50 of 0.05 nM and a Span of 2.33. Moreover, in test [2], the concentration giving a half-maximal response (EC50) worked out at 0.12 nM and the Span amounted to 3.42.

B2: PR300186-2 (antibody, human IgG1, kappa, V domains shown)
VH: QVQLQESGPGLVKPSETLSLTCTVSGGSIQNYYWSWVRQPPGKGLEWIGYIFYSGSTNSNPSLKSRVIISVDTSKNQFSLKLSSVTAADTAVYYCAREVGRIAVAGWFFDLWGRGTLVTVSS
VL: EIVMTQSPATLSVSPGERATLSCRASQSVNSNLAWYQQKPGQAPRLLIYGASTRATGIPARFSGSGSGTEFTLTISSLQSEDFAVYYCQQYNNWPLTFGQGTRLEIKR
notes: PTM variant of PR300186: Heavy chain N30Q
For B2, in test [1], a half-maximal effect (EC50) was put at 0.05 nM and the Span is 2.43. For the same molecule, in test [2], a half-maximal effect (EC50) was put at 0.14 nM and the Span is 3.36.

B3: PR300186-6 (antibody, human IgG1, kappa, V domains shown)
VH: QVQLQESGPGLVKPSETLSLTCTVSGGSIQNYYWSWVRQPPGKGLEWIGYIFYSGSTNANPSLKSRVIISVDTSKNQFSLKLSSVTAADTAVYYCAREVGRIAVAGWFFDLWGRGTLVTVSS
VL: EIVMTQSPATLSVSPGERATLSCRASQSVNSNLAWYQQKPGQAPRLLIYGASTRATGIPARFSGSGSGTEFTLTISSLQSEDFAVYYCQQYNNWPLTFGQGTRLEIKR
notes: PTM variant of PR300186: Heavy chain N30Q and S59A
In test [1], B3 registered an EC50 of 0.07 nM and a Span of 2.67. In test [2], this molecule displayed a half-maximal effective concentration (EC50) of 0.21 nM and a Span of 3.66.

B4: PR300186-3 (antibody, human IgG1, kappa, V domains shown)
VH: QVQLQESGPGLVKPSETLSLTCTVSGGSIQNYYWSWVRQPPGKGLEWIGYIFYSGSTQSNPSLKSRVIISVDTSKNQFSLKLSSVTAADTAVYYCAREVGRIAVAGWFFDLWGRGTLVTVSS
VL: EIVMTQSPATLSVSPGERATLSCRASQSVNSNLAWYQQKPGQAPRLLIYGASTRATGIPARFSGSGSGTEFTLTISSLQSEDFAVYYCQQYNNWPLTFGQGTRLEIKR
notes: PTM variant of PR300186: Heavy chain N30Q and N58Q
In test [1], B4 came in with a 50% effective concentration (EC50) of 0.05 nM and a Span of 2.36. Further, in test [2], the EC50 was 0.1 nM and the Span was found to be 3.25.

B5: PR300186-8 (antibody, human IgG1, kappa, V domains shown)
VH: QVQLQESGPGLVKPSETLSLTCTVSGGSIQNYYWSWVRQPPGKGLEWIGYIFYSGSTNANPSLKSRVIISVDTSKNQFSLKLSSVTAADTAVYYCAREVGRIAVAGWFFDLWGRGTLVTVSS
VL: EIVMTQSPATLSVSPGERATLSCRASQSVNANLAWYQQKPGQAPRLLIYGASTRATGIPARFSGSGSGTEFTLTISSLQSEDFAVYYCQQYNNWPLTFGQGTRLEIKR
notes: PTM variant of PR300186: Heavy chain N30Q and S59A, Light chain S31A
For B5, in test [1], the EC50 was found to be 0.04 nM and the Span turned out to be 2.18. Besides, in test [2], the response was half-maximal at 0.13 nM (EC50) and the Span came to 3.87.

B6: PR300186-4 (antibody, human IgG1, kappa, V domains shown)
VH: QVQLQESGPGLVKPSETLSLTCTVSGGSIQNYYWSWVRQPPGKGLEWIGYIFYSGSTQSNPSLKSRVIISVDTSKNQFSLKLSSVTAADTAVYYCAREVGRIAVAGWFFDLWGRGTLVTVSS
VL: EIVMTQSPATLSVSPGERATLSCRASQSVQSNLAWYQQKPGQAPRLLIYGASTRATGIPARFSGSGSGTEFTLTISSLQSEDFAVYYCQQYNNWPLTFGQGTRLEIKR
notes: PTM variant of PR300186: Heavy chain N30Q and N58Q, Light chain N30Q
On to B6, for which, in test [1], the EC50 came out at 0.07 nM and the Span is 2.53. In test [2], this molecule showed an EC50 of 0.18 nM and a Span of 3.47.

B7: PR300186-7 (antibody, human IgG1, kappa, V domains shown)
VH: QVQLQESGPGLVKPSETLSLTCTVSGGSIQNYYWSWVRQPPGKGLEWIGYIFYSGSTNSNPSLKSRVIISVDTSKNQFSLKLSSVTAADTAVYYCAREVGRIAVAGWFFDLWGRGTLVTVSS
VL: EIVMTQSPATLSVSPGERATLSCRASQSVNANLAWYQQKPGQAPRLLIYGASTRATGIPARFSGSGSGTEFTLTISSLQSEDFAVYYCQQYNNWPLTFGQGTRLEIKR
notes: PTM variant of PR300186: Heavy chain N30Q, Light chain S31A
Turning to B7, in test [1], it took 0.04 nM to reach a half-maximal effect (EC50) and the Span worked out at 2.24. Further, in test [2], the EC50 came to 0.14 nM and the Span stood at 3.85.

B8: PR300186-5 (antibody, human IgG1, kappa, V domains shown)
VH: QVQLQESGPGLVKPSETLSLTCTVSGGSINNYYWSWVRQPPGKGLEWIGYIFYSGSTNSNPSLKSRVIISVDTSKNQFSLKLSSVTAADTAVYYCAREVGRIAVAGWFFDLWGRGTLVTVSS
VL: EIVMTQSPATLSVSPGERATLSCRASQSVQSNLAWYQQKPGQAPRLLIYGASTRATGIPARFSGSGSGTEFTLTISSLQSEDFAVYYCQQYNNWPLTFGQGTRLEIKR
notes: PTM variant of PR300186: Light chain N30Q
For the molecule B8, in test [1], the EC50 is 0.07 nM and the Span was found to be 2.7. In test [2], this molecule came in with an EC50 of 0.22 nM and a Span of 3.61.

B9: PR300186-9 (antibody, human IgG1, kappa, V domains shown)
VH: QVQLQESGPGLVKPSETLSLTCTVSGGSINNYYWSWVRQPPGKGLEWIGYIFYSGSTNSNPSLKSRVIISVDTSKNQFSLKLSSVTAADTAVYYCAREVGRIAVAGWFFDLWGRGTLVTVSS
VL: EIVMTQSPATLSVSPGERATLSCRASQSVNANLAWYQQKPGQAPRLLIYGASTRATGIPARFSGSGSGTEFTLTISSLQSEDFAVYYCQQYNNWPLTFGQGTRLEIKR
notes: PTM variant of PR300186: Light chain S31A
Take B9: the results for the EC50 in test [1] and in test [2] were 0.05 nM and 0.11 nM, respectively. Moreover, the Span was found to be 2.19 in test [1] and 3.85 in test [2].

B10: PR300186-10 (antibody, human IgG1, kappa, V domains shown)
VH: QVQLQESGPGLVKPSETLSLTCTVSGGSIQNYYWSWVRQPPGKGLEWIGYIFYSGSTQSNPSLKSRVIISVDTSKNQFSLKLSSVTAADTAVYYCAREVGRIAVAGWFFDLWGRGTLVTVSS
VL: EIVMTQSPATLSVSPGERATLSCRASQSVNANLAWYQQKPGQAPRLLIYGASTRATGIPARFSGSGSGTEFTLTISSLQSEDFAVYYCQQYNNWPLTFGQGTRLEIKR
notes: PTM variant of PR300186: Heavy chain N30Q and N58Q, Light chain S31A
On to B10, for which, in test [1], the EC50 was determined as 0.04 nM and the Span is 2.19. In test [2], this molecule returned an EC50 of 0.1 nM and a Span of 3.71.
